Columns and labels:
[1] = molecular target: Human tau (human, UniProt P10636 1-441); test: direct binding ELISA
[2] = molecular target: Human alpha-synuclein (human, UniProt P37840 1-140); test: direct binding ELISA

Sequence of Human tau (P10636 other isoform, or with tags, fused parts or gaps): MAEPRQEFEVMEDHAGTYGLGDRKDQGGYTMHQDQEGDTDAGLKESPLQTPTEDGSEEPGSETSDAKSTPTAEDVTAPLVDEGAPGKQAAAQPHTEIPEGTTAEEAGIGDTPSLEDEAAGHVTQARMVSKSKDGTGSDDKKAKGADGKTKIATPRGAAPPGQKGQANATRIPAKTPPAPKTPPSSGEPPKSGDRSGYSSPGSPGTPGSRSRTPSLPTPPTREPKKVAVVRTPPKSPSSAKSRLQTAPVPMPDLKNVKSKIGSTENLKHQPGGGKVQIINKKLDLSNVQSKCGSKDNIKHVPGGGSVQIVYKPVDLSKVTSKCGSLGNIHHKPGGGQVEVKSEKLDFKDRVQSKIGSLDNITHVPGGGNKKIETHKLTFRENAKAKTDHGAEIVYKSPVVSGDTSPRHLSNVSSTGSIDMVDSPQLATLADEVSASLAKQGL

B1: FC5-H62(T33C/A104C)-G4S-6C5 (LC) (bispecific antibody)
heavy: not shown
light: DVQLVESGGGLVQPGGSLRLSCAASGFKITHYCTGWFRQAPGKEREFVSRITWGGDNTFYSNSVKGRFTISRDNSKNTVYLQMNSLRAEDTAVYYCAAGSTSTCTPLRVDYWGQGTLVTVSSGGGGSSYELTQPPSVSVSPGQTARITCSGDALPKRYVYWYQQKSGQAPVLVIYEDSKRPSGIPETFSGSSSGTMATLTISGAQVEDEADYYCYSTDSNGHHWVFGGGTKLTVLGQPKAAPSVTLFPPSSEELQANKATLVCLISDFYPGAVTVAWKADSSPVKAGVETTTPSKQSNNKYAASSYLSLTPEQWKSHRSYSCQVTHEGSTVEKTVAPTECS
How did the EC50 [1] turn out when B1 was run?
The EC50 was 0.98 nM.

B2: 12F4 hIgG1 (antibody, V domains shown)
VH: EVQLVESGGGLVEPGGSLRLSCAVSGFDFEKAWMSWVRQAPGQGLQWVARIKSTADGGTTSYAAPVEGRFIISRDDSRNMLYLQMNSLKTEDTAVYYCTSAHWGQGTLVTVSS
VL: SYELTQPPSVSVSPGQTARITCSGEALPMQFAHWYQQRPGKAPVIVVYKDSERPSGVPERFSGSSSGTTATLTITGVQAEDEADYYCQSPDSTNTYEVFGGGTKLTVLS
For B2, which EC50 [2] is on record?
The EC50 was 2.7 nM.

B3: 6C5 hIgG1 (antibody, V domains shown)
VH: QVQLVESGGGVVQPGRSLRVSCAASGFTFSSYDMHWVRQAPGKGLEWVAVIWFDGSNEFYADSVKGRFTISRDNSKNTLFLQMNSLRAEDTAVYYCARDLGASVTTSNAENFHHWGQGTLVTVSS
VL: SYELTQPPSVSVSPGQTARITCSGDALPKRYVYWYQQKSGQAPVLVIYEDSKRPSGIPETFSGSSSGTMATLTISGAQVEDEADYYCYSTDSNGHHWVFGGGTKLTVLG
How did the EC50 [1] turn out when B3 was run?
Its EC50 is 0.52 nM.

B4: FC5-H62(T33C/A104C)-G4S-6C5 hIgG1 (HC) (bispecific antibody)
heavy: not shown
light: SYELTQPPSVSVSPGQTARITCSGDALPKRYVYWYQQKSGQAPVLVIYEDSKRPSGIPETFSGSSSGTMATLTISGAQVEDEADYYCYSTDSNGHHWVFGGGTKLTVLGQPKAAPSVTLFPPSSEELQANKATLVCLISDFYPGAVTVAWKADSSPVKAGVETTTPSKQSNNKYAASSYLSLTPEQWKSHRSYSCQVTHEGSTVEKTVAPTECS
For B4, which EC50 [1] is on record?
Its EC50 is 0.74 nM.

Reference: patent publication US20220089704A1 (published 2022)
